{"source": "paper PMC7229662", "about": "(Proceedings of the National Academy of Sciences of the …, 2020)", "biological_target": "the molecule itself", "assay": "cryo-EM structure", "data": [{"protein": "C331S variant of polycystin-2 (residues 53 to 792) (natural protein, human, UniProt Q13563 53-792, looked up) EIEMQRIRQAAARDPPAGAAASPSPPLSSCSRQAWSRDNPGFEAEEEEEEVEGEEGGMVVEMDVEWRPGSRRSAASSAVSSVGARSRGLGGYHGAGHPSGRRRRREDQGPPCPSPVGGGDPLHRHLPLEGQPPRVAWAERLVRGLRGLWGTRLMEESSTNREKYLKSVLRELVTYLLFLIVLCILTYGMMSSNVYYYTRMMSQLFLDTPVSKTEKTNFKTLSSMEDFWKFTEGSLLDGLYWKMQPSNQTEADNRSFIFYENLLLGVPRIRQLRVRNGSSSIPQDLRDEIKECYDVYSVSSEDRAPFGPRNGTAWIYTSEKDLNGSSHWGIIATYSGAGYYLDLSRTREETAAQVASLKKNVWLDRGTRATFIDFSVYNANINLFCVVRLLVEFPATGGVIPSWQFQPLKLIRYVTTFDFFLAACEIIFCFFIFYYVVEEILEIRIHKLHYFRSFWNCLDVVIVVLSVVAIGINIYRTSNVEVLLQFLEDQNTFPNFEHLAYWQIQFNNIAAVTVFFVWIKLFKFINFNRTMSQLSTTMSRCAKDLFGFAIMFFIIFLAYAQLAYLVFGTQVDDFSTFQECIFTQFRIILGDINFAEIEEANRVLGPIYFTTFVFFMFFILLNMFLAIINDTYSEVKSDLAQQKAEMELSDLIRKGYHKALVKLKLKKNTVDDISESLRQGGGKLNFDELRQDLKGKGHTDAEIEAIFTKYDQDGDQELTEHEHQQMRDDLEKEREDLDLD", "values": [{"measurement": "stoichiometry N", "value": 4}]}]}
